Biological target: T1, CD25-Fc (UniProt P01589 22-240)
T1 construct: Analyte flowed over the immobilised constructs in SPR (16, 8, 4, 2, 1 nM); also called IL-2Ralpha-Fc; not shown: Fc part of the reagent
T1 sequence (looked up): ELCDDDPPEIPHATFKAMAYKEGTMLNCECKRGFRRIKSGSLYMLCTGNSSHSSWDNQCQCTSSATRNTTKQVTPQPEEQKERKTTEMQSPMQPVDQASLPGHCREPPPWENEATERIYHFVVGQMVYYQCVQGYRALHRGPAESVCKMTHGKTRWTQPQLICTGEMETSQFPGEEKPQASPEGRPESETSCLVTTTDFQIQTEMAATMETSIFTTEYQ
Assay: SPR (Reichert 4Channel, 25 C): MMP-activated construct immobilised on the chip by amine coupling, CD25-Fc flowed over as analyte

B1: AK168 after protease cleavage (Fc fusion)
chain: LYHPSGPAPTSSSTKKTQLQLEHLLLDLQMILNGINNYKNPKLTAMLTAKFAMPKKATELKHLQCLEEALKPLEEVLNLAQSKNFHLRPRDLISNINVIVLELKGSETTFMCEYADETATIVEFLNRWITFAQSIISTLT
notes: The fragments present on the SPR chip are not described
- binding result: no binding
